US20130263297A1, “METHODS OF TREATING CANCER” (Cedars-Sinai Medical Center, priority 2010, published 2013)

How the values were obtained:
human cancer cells = test: Bone colonization by human cancer cells (FIG. 34); assay type: in vivo; settings: recombinant sRANKL
[1] = tested on: prostate (ARCaP and LNCaP) and osteosarcoma (MG-63 and Saos-2) cells; normal prostate (PrEC and RWPE-1) or bone (RAW264.7) cells; test: RANKL induction of its own expression, cancer versus normal cells; assay type: cell-based

B1: RANKL: trimerized recombinant RANKL protein (rRANKL), receptor activator of NF-KB ligand (protein, UniProt O14788 69-317, looked up)
extracellular domain: YFRAQMDPNRISEDGTHCIYRILRLHENADFQDTTLESQDTKLIPDSCRRIKQAFQGAVQKELQHIVGSQHIRAEKAMVDGSWLDLAKRSKLEAQPFAHLTINATDIPSGSHKVSLSSWYHDRGWAKISNMTFSNGKLIVNQDGFYYLYANICFRHHETSGDLATEYLQLMVYVTKTSIKIPSSHTLMKGGSTKYWSGNSEFHFYSINVGGFFKLRSGEEISIEVSNPSLLDPDQDATYFGAFKVRDID
modifications: extracellular domain trimerized
- bone colonization by human cancer cells (human cancer cells): promotes bone colonization
- ability of recombinant RANKL to induce its own expression [1]: restricted to cancer
